In article PMC5619814:

Key:
[1] = target: soluble rabbit neonatal Fc receptor (rbFcRn), heterodimer of truncated rbFcRn α-chain and rabbit β2-microglobulin (rabbit)
[2] = target: soluble human neonatal Fc receptor (hFcRn) (human) (UniProt P55899); assay: SPR; ProteOn XPR36, GLC chip; rbFcRn (about 1200 RU) or hFcRn (about 1600 RU) immobilised by amine coupling; IgG injected at 8.34-133 nM, 100 μl/min, PBS-T pH 6.0, 25°C; heterogeneous ligand model (two classes of non-interacting sites)
[3] = target: soluble rabbit neonatal Fc receptor (rbFcRn), heterodimer of truncated rbFcRn α-chain and rabbit β2-microglobulin (rabbit); assay: as above
[4] = target: human IgG1 (Omalizumab) (human); assay: SPR; ProteOn XPR36, GLC chip; rbIgG (about 1900 RU) or hIgG1 (about 2100 RU) immobilised by amine coupling; rbFcRn or hFcRn injected at 37.5-600 nM, 100 μl/min, PBS-T pH 6.0, 25°C; Langmuir 1:1 model

Row | FcRn-mediated recycling assay in rabbit peritoneal macrophages: relative fluorescence intensity of Alexa 488-hIgG1 left in the cells after 20 min pulse at pH 6.0 and 30 min chase at pH 7.4 [1] | KD1 (high affinity class of sites, heterogeneous ligand model) [2] | KD2 (low affinity class of sites, heterogeneous ligand model) [2] | KD1 (high affinity class of sites, heterogeneous ligand model) [3] | KD2 (low affinity class of sites, heterogeneous ligand model) [3] | Kd [4] | koff [4] | kon [4] | Substance
1 | 60% | 9.99 nM | 57.2 nM | 12.9 nM | 71.9 nM | – | – | – | human IgG1 (Omalizumab) (antibody)
2 | – | 5.43 nM | 34.7 nM | 7.46 nM | 106 nM | – | – | – | human IgG2 (Abcam) (antibody)
3 | – | 6.06 nM | 17.4 nM | 2.57 nM | 59.2 nM | – | – | – | human IgG3 (Abcam) (antibody)
4 | – | 2.36 nM | 20.2 nM | 3.86 nM | 53.5 nM | – | – | – | human IgG4 (Abcam) (antibody)
5 | – | – | – | – | – | 4.3 nM | 0.000592 s⁻¹ | 138000 M⁻¹ s⁻¹ | soluble human neonatal Fc receptor (hFcRn) (from UniProt P55899 24-297; P61769 21-119) (complex)
6 | – | – | – | – | – | 1.19 nM | 0.00039 s⁻¹ | 327000 M⁻¹ s⁻¹ | soluble rabbit neonatal Fc receptor (rbFcRn), heterodimer of truncated rbFcRn α-chain and rabbit β2-microglobulin (complex)
